Biological target: the molecule itself
Test: SEC

B1: RIG-I-TD (RIG-I triple deamidation mutant) (natural protein)
chain: MTTEQRRSLEAFQDYIRKTLDPTYILSYMAPWFREEEVQYIQAEKNNKGPMEAATLFLKFLLELQEEGWFRGFLDALDHAGYSGLYEAIESWDFKKIEKLEEYRLLLKRLQPEFKTRIIPTDIISDLSECLINQECEEILQICSTKGMMAGAEKLVECLLRSDKENWPKTLKLALEKERNKFSELWIVEKGIKDVETEDLEDKMETSDIQIFYQEDPECQNLSENSCPPSEVSDTNLYSPFKPRDYQLELALPAMKGKNTIICAPTGCGKTFVSLLICEHHLKKFPQGQKGKVVFFANQIPVYEQQKSVFSKYFERHGYRVTGISGATAENVPVEQIVENNDIIILTPQILVNNLKKGTIPSLSIFTLMIFDECHNTSKQHPYNMIMFNYLDQKLGGSSGPLPQVIGLTASVGVGDAKNTDEALDYICKLCASLDASVIATVKHDLEELEQVVYKPQKFFRKVESRISDKFKYIIAQLMRDTESLAKRICKDLENLSQIQNREFGTQKYEQWIVTVQKACMVFQMPDKDEESRICKALFLYTSHLRKYNDALIISEHARMKDALDYLKDFFSNVRAAGFDEIEQDLTQRFEEKLQELESVSRDPSNENPKLEDLCFILQEEYHLNPETITILFVKTRALVDALKNWIEGNPKLSFLKPGILTGRGKTNQNTGMTLPAQKCILDAFKASGDHNILIATSVADEGIDIAQCNLVILYEYVGNVIKMIQTRGRGRARGSKCFLLTSNAGVIEKEQINMYKEKMMNDSILRLQTWDEAVFREKILHIQTHEKFIRDSQEKPKPVPDKENKKLLCRKCKALACYTADVRVIEECHYTVLGDAFKECFVSRPHPKPKQFSSFEKRAKIFCARQNCSHDWGIHVKYKTFEIPVIKIESFVVEDIATGVQTLYSKWKDFHFEKIPFDPAEMSK
**Q.** Does B1 bind?
**A.** binds
